{
  "source": "a protein production outcome set (Wang et al. 2014)",
  "data": [
    {"assay": "label from the status in PepcDB records", "values": [
      {"sequence": "MACSRFERQNMFKLCLDFTQKRAPMSQKQPINLVLSGGGTRAIGHLAIISALLERGFEIRAISGSSGGAIVGSLLASGKSPKECYDLLLKTNFVRLFAFKMSQGGLFHLKRGEAYLEKILGIKEFSELSLPLYVCVVDLKEGRPFFLSEGNIAKAVIASSSISPFMRPVEMEGRMGADGGIMNNLPIEPFLEENLPIIGINVNPNRPFHSHSMVSIAKRALFLQFYSNILERSKLCSLYLEPSGIDAYTIYDLKSLESVYNLCQEWCETNLDALIGDVPLHVLRP", "protein production": "failed"},
      {"sequence": "MADEMMVKELEEVVVRFSGDSGDGMQLAGNIFSNVSATVGNDICTFPDYPADIRAPQGSLTGVSGFQVHVGASKIFTPGDHCHVLVAMNPAALKTQIKFCKPQGLVITDSDSFGEKDLEKAQFKTGNPFEEMGITQQVLEVPISSMCKESLKNSGLDNKAMLRCKNMFALGLVCWLFNRNLSAAEKMLNEKFAKKPEIAAANIKVLNDGYNYGANTHASTSTYKIESKTPKAAGLYTDINGNKATSYGLIAAAEKAGLELYLGSYPITPATDILHELAKHKSLGVKTVQCEDEIAGCASAVGAAFAGDLAVTTTSGPGVCLKSEAMNLAVIAELPLVVVNVQRGGPSTGMPTKSEQTDLLQALYGRNGESPMPVIAATSPTNCFDAAYMAAKIALEHMTPVVLLTDAFIANGSAAWKLPNMDEYPAINPPYVTPDMIGTWTPFQRNEKTGVRYWAVPGTEGFMHRIGGLEKSSETGVISTEPENHQKMTLLRQAKVDKIADSIPEQEVQGDADADLLVVGWGGTYGHLYSAVEHMRKNGKKVALAHFQYINPLPKNTAEILKKYKKIVVAEQNLGQFAGYLRMKVPGLNISQFNQVKGQPFVTRELVEAFTKLLEE", "protein production": "not failed"},
      {"sequence": "MADFQVVVGDDDGTAYSFEVDGQDANRFIGRAIGETVDGDAVGLPGYELEITGGSDQSGRPMHGDINGAETAAILSEGGVGFNPTVDGERKRVTVRGAEVSEDTRQINASIVSRGEQSIDDLLGGEDDE", "protein production": "failed"},
      {"sequence": "MADGIYGSFENLKKHAGAMTLETYMRFNAKLSEAKDEMGAKEYEEFTKELKKLTNAKLAYGDSNGNIDYDGLSPAKREEMKKVSMGLQPYFDKLNGHKSSKEVLTQEEFDRYMEALMTHEIVRVKTKSTGAIKIEEVPEAYKERFIKAEQFMEYVDEKVR", "protein production": "not failed"},
      {"sequence": "MADIINNIVGGRYYILELIGRGGSAIVYKARDIHNGGIYALKKYITSDPANRKRLLEGMERELEVLKNCTHPVLPKIFDLIKIEDAFFLVMEYIDGIDLKKYVDEYGTLSTKMLIKVMEQVCSGFYYLHSLSPAIVYRDLKPANIILCKDGRIKLIDFGIAKRYRTDIDVDKLALGSKGFAAPEQFGDSKGKGLYNTDIRADIYGIGTTMYYLKTAKTYNSVPGSKSLYSFKDYFKTSHKLRKIIKKCTKNNPDLRYQSCIEILCSIKTLHIIGK", "protein production": "failed"},
      {"sequence": "MADIQGEDLESLYGYAKQLFDGGEIAAARNVYQLLSTLDHWNFDYLLALGLCHQRLGAHNEAVVCFGRAGLIKVDDPRAAFYAGISYRLDGNAEYASKAFKAAINWCGEQIDYQAIKASAVDMLALQQEEVPLEHHHHHH", "protein production": "not failed"},
      {"sequence": "MADLSFIEDTVAFPEKEEDEEEEEEGVEWGYEEGVEWGLVFPDANGEYQSPINLNSREARYDPSLLDVRLSPNYVVCRDCEVTNDGHTIQVILKSKSVLSGGPLPQGHEFELYEVRFHWGRENQRGSEHTVNFKAFPMELHLIHWNSTLFGSIDEAVGKPHGIAIIALFVQIGKEHVGLKAVTEILQDIQYKGKSKTIPCFNPNTLLPDPLLRDYWVYEGSLTIPPCSEGVTWILFRYPLTISQLQIEEFRRLRTHVKGAELVEGCDGILGDNFRPTQPLSDRVIRAAFQLEHHHHHH", "protein production": "not failed"},
      {"sequence": "MADLYTVVSSIILLFIVLDPVGVSPYVASIVARRPEGERERIVRTALASAGAILVAFTLIGVAVLDILGVSMDEFKVAAGLLLLIYATADLFEIKIGYSEPSGDEVAIFPLATPLLAGPGSIATVMYIMGSSGIAVALIAILVNLVLAYPILHASLKLVRLLGRHGSLLVAKFTAFLMVGFAVSIIFDGLRGIVPGVFS", "protein production": "failed"},
      {"sequence": "MADMTKQAFMRLSNPKFIMLFLILWVSLLLSSNHTLSQLADYIFFTFLGTLGAIFANSTGAGGGVVFIPMFTQLNFTEQQSIATSFAIQCFGMTAGAVTWWHHYRTEKTDLRLWQGFKRIICVTTIASIIGLNAVFFYQVNSPATLHTSFSWFSLLLGFFIVLTIYLLQPHRERSQLYYVDYIFLILIGLFGGAVTAWLSVGVGELLVIYLLLRHFDISMAVAAAVIVSAISVWTAIAQVNSDVYWQVVLFAGPGAVLGGIFAKTLVTHLSAIKLKLFFACWLLLSGVVGLI", "protein production": "failed"}
    ]}
  ]
}
